From patent publication US20140186340A1, “Methods and Compositions for Normalization of Tumor Vasculature by Inhibition of LOXL2” (GILEAD BIOLOGICS, INC., priority 2011, published 2014)

Assays:
SKOV3-derived tumors [1] = test: SKOV3 xenograft, tumor hypoxia by carbonic anhydrase IX (CA9) levels; format: in vivo, mice; conditions: vs vehicle
Procedure: (§1) SKOV3 ovarian carcinoma cells were obtained from ATCC, Manassas, Va. 5×10^6 cells, suspended in 50% (v/v) Matrigel, were implanted subcutaneously in female athymic nude mice. After tumors attained a volume of 100 mm^3, the mice received twice weekly intra-peritoneal injections of vehicle, anti-LOXL2 antibody AB0023 (15 mg/kg), taxol (5 mg/kg) or a combination of taxol and AB0023. The experiment was terminated when tumors from control (vehicle-treated) animals attained an average volume of 1,000 mm^3, at which point the animals were sacrificed, tumors were removed and snap-frozen, and 5 μm thick frozen sections were prepared from the frozen tumors.
Sections were fixed with 4% paraformaldehyde and blocked using Peroxidazed 1 and Background Sniper (Biocare Medical, Concord, Calif.) before incubation with primary antibody. Anti-CA9 antibody (Abcam) was applied and Mach2 HRP-polymer (Biocare Medical) was used as secondary antibody. All sections were dehydrated through a series of ethanol dilutions and xylene, mounted using a resinous medium, and visualized using DAB chromogen.
Mice with SKOV3-derived tumors, as described in Example 4, were treated with AB0023 and/or taxol; and the effects on levels of carbonic anhydrase IX (CA9), a marker of hypoxia, were determined. […] Thus, inhibition of LOXL2 reduces vessel density and reduces hypoxia in tumors.

[2] = tested on: SKOV3 ovarian carcinoma cells; test: SKOV3 tumor xenograft, tumor growth; format: in vivo, mice; conditions: twice weekly i.p., AB0023 15 mg/kg, taxol 5 mg/kg, monitored 40 days, vs vehicle controls
Procedure: as §1
Female athymic nude mice were implanted with SKOV3 ovarian carcinoma cells which, when transplanted, form highly vascularized subcutaneous tumors. Expression of LOXL2 in these tumors was confirmed by immunohistochemistry; it was noted that most of the LOXL2 immunostaining was associated with vascular structures. When the average tumor volume of the population reached 100 mm^3, the mice were treated twice weekly with intra-peritoneal injections of the anti-LOXL2 antibody AB0023 (15 mg/kg), taxol (5 mg/kg) or a combination of AB0023 and taxol at the concentrations given above. Control mice received injection of vehicle (PBST). Tumor growth was monitored for 40 days.

SKOV3-derived tumors [3] = test: SKOV3 xenograft, tumor vessel number by CD31 immunoreactivity; format: in vivo, mice; conditions: vs vehicle-treated animals; p<0.01
Procedure: as §1
(§2) For assessment of perfusion, the animals were injected intravenously with Hoechst 33342 (40 mg/kg) one minute prior to sacrifice and tumor removal was performed as described by Franco et al. (2006) Cancer Res. 66:3639-3648 and Rijken et al. (2000) Int. […] Bound anti-CD31 was detected with a goat anti-rat CY3-labeled antibody (Jackson Laboratories, Bar Harbor, Me.) and bound NG2 antibodies were detected with a Cy2-labeled anti-rabbit antibody (Jackson Laboratories, Bar Harbor, Me.). The stained sections were visualized using a confocal microscope or a Leica CTR 6000 microscope, and at least five microscopic fields were analyzed in each section. For analysis of perfusion, the coincidence of CD31-staining and Hoechst dye fluorescence was assessed. […]

[4] = tested on: human umbilical vein endothelial cells (HUVEC); test: bFGF-induced HUVEC migration assay (transwell); format: cell-based; conditions: antibody 10 μg/ml, compared to control antibody AC-1; 5 hours
Procedure: To determine whether LOXL2 activity contributes to bFGF-induced migration of human umbilical vein endothelial cells (HUVEC), experiments were conducted in which expression of LOXL2 was inhibited using a LOXL2-targeted shRNA, and LOXL2 activity was inhibited using an anti-LOXL2 antibody.
(§3) HUVEC were isolated from umbilical veins and cultured as described. Gospodarowicz et al. (1983) J. Cell Biol. 97:1677-1685; Kigel et al. (2008) PLoS One 3:e3278. Recombinant human bFGF was produced and purified according to Tessler et al. (1990) J. Cell. Physiol. 145:310-317. For inhibition of LOXL2 expression by shRNA, lentiviruses directing expression of a LOXL2-targeted shRNA and a control shRNA were generated and used to infect HUVEC as described. Brekhman et al. (2009) BMC Cancer 9:415. The anti-LOXL2 monoclonal antibody (AB0023) has been described. See, e.g., Rodriguez et al. (2010) J. Biol. Chem. 285:20964-20974 and United States Patent Application Publication No. 2009/0053224 (Feb. 26, 2009).
For migration assays, HUVEC were seeded in transwell culture dishes (8 μm pores, 3×10^4 cells/well) coated with fibronectin (10 μg/ml, Biological Industries) in 200 μl of M199 medium containing 20% fetal calf serum. […] After 5 hours, cells that had migrated were fixed for 20 minutes with 4% paraformaldehyde, washed three times with PBS, stained with 0.05% crystal violet for 10 minutes, photographed, and counted.

[5] = tested on: human umbilical vein endothelial cells (HUVEC); test: Tube formation on Matrigel by HUVEC; format: cell-based; conditions: antibody 1 ug/ml, compared to control antibody AC-1; bFGF 5 ng/ml, 24 hours
From the text: as §3
Tube formation on Matrigel was carried out as described. Varshaysky et al. (2008) Cancer Res. 68:6922-2931. For shRNA inhibition HUVEC, infected with either shLOXL2-encoding or control lentivirus, were seeded in Matrigel-coated 48 well tissue culture plates (1.6×10^4 cells/well) and incubated with growth medium supplemented with bFGF (5 ng/ml) for 24 hours. […] Phase-contrast images were photographed at 63× magnification and bifurcations-per-field of tube structures in microscopic fields were quantified by manual counting.

SKOV3-derived tumors [6] = test: SKOV3 xenograft, tumor perfusion by Hoechst 33342 / CD31 coincidence; format: in vivo; conditions: Hoechst 33342 40 mg/kg i.v. one minute before sacrifice; vs control mice; p<0.05
Procedure: as §1, §2

[7] = tested on: bFGF-induced angiogenesis; test: Matrigel plug assay, vessel counting and immunohistochemistry; format: in vivo, mice
Procedure: To determine if inhibition of LOXL2 could modulate angiogenesis in vivo, we examined the effects of the anti-LOXL2 antibody AB0023 on bFGF-induced angiogenesis, using a Matrigel plug assay. Kessler et al. (2004) Cancer Res. 64:1008-1015; Kibbey et al. (1992) J. Natl. Cancer Inst. 84:1633-1638.
For these experiments, either AB0023, at a concentration of 30 mg/kg, or vehicle (PBS+0.01% Tween-20) were injected intraperitoneally (30 mg/kg or equivalent volume) twice weekly into athymic female Ncr:Nu/Nu mice. After one week the mice were injected subcutaneously with 250 or 500 μl Matrigel (BD Biosciences, San Jose, Calif.) supplemented with 100 ng/ml human bFGF (Peprotech, Rocky Hill, N.J.) and 40 or 60 U heparin (Sigma, St. Louis, Mo.). Matrigel plugs were harvested after 10 days, excised together with attached skin, fixed in 10% neutral buffered formalin, and embedded in paraffin. Immunohistochemical analysis was performed on 5 μm serial sections with anti-CD31, anti-CD34, and anti-NG2 antibodies. 2 step sections separated by […] were analyzed per plug. Three representative 10× microscopic fields were selected per section per step, for a total of 6 fields per plug.
Immunohistochemical analysis was performed with anti-CD34 antibody on one representative section from each plug. Three representative 10× fields were selected per section for quantitation. For all IHC analysis of plugs, the mean area of signal was determined for each treatment group using Metamorph software (Molecular Devices).

[8] = tested on: bFGF-induced angiogenesis; test: Matrigel plug assay, flow cytometric analysis; format: in vivo, mice; conditions: plugs harvested 7 days after implantation, vs vehicle
Procedure: The anti-angiogenic effects of systemic AB0023 administration in the Matrigel plug assay system were also assessed using flow cytometry to assay for cells expressing CD31, and for CD45-negative cells that express the vascular endothelial growth factor receptor VEGFR2 (an angiogenic marker). Analysis was conducted according to the method described by Adini et al. (2009) J. Immunol. Meth. 342:78-81.

SKOV3-derived tumors [9] = test: SKOV3 xenograft, pericytes by NG2 and CD31 staining; format: in vivo, mice; conditions: vs vehicle
Procedure: as §1, §2

[10] = independent experiment, vs vehicle

Molecule | effect on CA9 levels in tumors (SKOV3-derived tumors [1]; taxol 5 mg/kg twice weekly i.p.) | tumor growth (increase in tumor volume) [2] | CD31 immunoreactivity in tumors (concentration of tumor-associated blood vessels) (SKOV3-derived tumors [3]) | bFGF-induced cell migration of HUVEC [4] | reduction in CA9 levels in tumors (SKOV3-derived tumors [1]; AB0023 15 mg/kg twice weekly i.p., p<0.05) [%] | tube formation on Matrigel [5] | tumor perfusion (Hoechst staining associated with CD31-positive vessels) (SKOV3-derived tumors [6]) | number of blood vessels in Matrigel plugs (whole plug vessel counting) ([7]; 30 mg/kg i.p. twice weekly, athymic Ncr:Nu/Nu mice, plugs after 10 days, vs vehicle) | CD31 levels in Matrigel plug sections ([7]; 30 mg/kg i.p. twice weekly, plugs after 10 days, vs vehicle) | CD34 immunoreactivity in implanted plugs ([7]; further study, vs vehicle and control antibody AC-1) | staining for CD34 in Matrigel plugs [7, 10] | staining for pericyte marker NG2 in Matrigel plugs [7, 10] | number of CD31+ cells in plugs (flow cytometry) [8] | number of VEGFR-2+/CD45- endothelial cells in plugs (flow cytometry) [8] | total number of NG2-expressing cells in tumors (SKOV3-derived tumors [9]) | concentration of vessel-associated pericytes in tumors (correspondence of CD31 and NG2 staining) (SKOV3-derived tumors [9]; p<0.01)
CC(=O)O[C@H]1C(=O)[C@@]2(C)[C@H]([C@H](OC(=O)c3ccccc3)[C@]3(O)C[C@H](OC(=O)[C@H](O)[C@@H](NC(=O)c4ccccc4)c4ccccc4)C(C)=C1C3(C)C)[C@]1(OC(C)=O)CO[C@@H]1C[C@@H]2O [taxol, paclitaxel, reference compound] | did not have a statistically significant effect | small, statistically insignificant inhibition | – | – | – | – | – | – | – | – | – | – | – | – | – | –
AB0023: mouse monoclonal antibody directed against LOXL2; heavy and light chain variable regions SEQ ID NO:1 and 2 (antibody, listed as Mus musculus, V domains shown) VH: MEWSRVFIFLLSVTAGVHSQVQLQQSGAELVRPGTSVKVSCKASGYAFTYYLIEWVKQRPGQGLEWIGVINPGSGGTNYNEKFKGKATLTADKSSSTAYMQLSSLTSDDSAVYFCARNWMNFDYWGQGTTLTVSS VL: MRCLAEFLGLLVLWIPGAIGDIVMTQAAPSVSVTPGESVSISCRSSKSLLHSNGNTYLYWFLQRPGQSPQFLIYRMSNLASGVPDRFSGSGSGTAFTLRISRVEAEDVGVYYCMQHLEYPYTFGGGTKLEIK | – | did not inhibit tumor growth | statistically significant decrease | inhibited | 66 | inhibited | better perfusion | significant reduction | reduced | loss of CD34 immunoreactivity | significant reduction | significant reduction | significantly reduced | significantly reduced | not significantly changed | significantly increase
